Experimental data from US20230399374A1, “Compounds, Compositions and Methods of Use to Treat Bone Fractures” (PURDUE RESEARCH FOUNDATION, priority 2020, published 2023).
Non-standard residues stand in square brackets, D forms with d. Residues, ends and D or L forms follow the SMILES beside them. No end group written: not given here. *: point of attachment. X2 = CC1(C)C(/C=C/C2=C(Oc3ccc(CCNC(=O)CCN4C(=O)CC(*)C4=O)cc3)C(=C/C=C3/N(CCCCS(=O)(=O)O)c4ccc(S(=O)(=O)O)cc4C3(C)C)/CCC2)=[N+](CCCCS(=O)(=O)O)c2ccc(S(=O)(=O)O)cc21; Fmoc = O=C(OCC1c2ccccc2-c2ccccc21)*

Tests used:
[1] = Half-life of S0456 near-IR dye conjugates at the fracture site; conditions: female, ND-4 Swiss-Webster, mouse, in vivo, sc, 250 nmol/mouse
Protocol: (§1) All animal experiments were performed in accordance with protocols approved by Purdue University's Institutional Animal Care and Use Committee (IACUC).

midshaft femur fractures = conditions: mouse, in vivo
Protocol: To explore the impact of peptide branching on payload targeting, the abilities of acidic oligo-aspartic acids constructed of either two chains of 5 aspartic acids each or a single linear chain of 10 aspartic acids to deliver the CK2.3 payload to fracture surfaces were compared. […] The biodistributions were determined 18 hours post-injection into ND-4 Swiss-Webster mice (n=5) bearing midshaft femur fractures 10 days post-fracture.
The biodistributions were determined 18 hours post-injection into ND-4 Swiss-Webster mice (n=5) bearing midshaft femur fractures 10 days post-fracture.
The biodistributions were determined 18 hours post-injection (e.g., into ND-4 Swiss-Webster mice (n=5) bearing midshaft femur fractures 10 days post-fracture).
In some instances, the biodistribution is determined 18 hours post-injection (e.g., into ND-4 Swiss-Webster mice (n=5) bearing midshaft femur fractures 10 days post-fracture).
The biodistribution was determined 18 hours post-injection (e.g., into ND-4 Swiss-Webster mice (n=5) bearing midshaft femur fractures 10 days post-fracture). In some instances, the accumulation of the labeled compounds in the fractured femurs are reported as a percent of the injected dose per gram of tissue. […]

[2] = mouse, in vivo, iv
Protocol: as §1

[3] = Serum calcium after 21 days of treatment (QuantiChrom Calcium Assay); type: in vivo, Swiss Webster mouse; conditions: FIG. 25
Excerpt: In some instances, using a targeted anabolic described herein (e.g., as opposed to free anabolics) is beneficial for treating bone fracture, such as, for example, because targeted anabolics hereof can limit the effects on the regulation of calcium metabolism that occurs in the kidneys for parathyroid hormones.
For quantitative determination of calcium ion (Ca^2+) and evaluation of drug effects on calcium metabolism, the QuantiChrom Calcium Assay Kit from BioAssay Systems (Hayward, CA) was used. A phenolsulfonphthalein dye in the kit specifically forms a very stable, blue-colored complex with free calcium. The intensity of the color, measured at 612 nm, is directly proportional to the calcium concentration in the sample. […] The serum was removed from the cell pellet and stored at −80° C. until calcium concentration quantification. […] After that, the samples were incubated for 3 minute at room temperature and optical density at 570-650 nm (peak absorbance at 612 nm) was read to obtain the ODSAMPLE. […] The plate was tapped to mix and optical density was measured at the same wavelength to get ODSTANDARD. […] Optical density was read at the same wavelength measurement to get ODBLANK. […]
where ODSAMPLE, ODBLANK, and ODSTANDARD are the OD readings of the Sample, Sample Blank, and the Sample plus Standard respectively; 10 is the concentration of the standard in mg/dL, and n is the sample dilution factor. […]

## CC1(C)C(/C=C/C2=C(Oc3ccc(CCNC(=O)CCN4C(=O)CC(SC[C@H](NC(=O)OCC5c6ccccc6-c6ccccc65)C(=O)N[C@H](CC(=O)O)C(=O)N[C@H](CC(=O)O)C(=O)N[C@H](CC(=O)O)C(=O)N[C@H](CC(=O)O)C(=O)N[C@H](CC(=O)O)C(=O)N[C@H](CC(=O)O)C(=O)N[C@H](CC(=O)O)C(=O)N[C@H](CC(=O)O)C(=O)N[C@H](CC(=O)O)C(=O)N[C@H](CC(=O)O)C(=O)O)C4=O)cc3)C(=C/C=C3/N(CCCCS(=O)(=O)O)c4ccc(S(=O)(=O)O)cc4C3(C)C)/CCC2)=[N+](CCCCS(=O)(=O)O)c2ccc(S(=O)(=O)O)cc21 (stereo partly shown) [(D)Asp10] (Fmoc-C(X2)[dD][dD][dD][dD][dD][dD][dD][dD][dD][dD]-OH)
[1]
  half-life: > 100 h

## RQIKIWFQNRRMKWKKIPVGESLKDLIDQC [CK2.3]
Midshaft femur fractures
  fracture targetability of payloads coupled to (L)Asp10 (in words): displayed no reduction in fracture accumulation

## N[C@@H](Cc1ccc(O)c(I)c1)C(=O)N[C@@H](CSC1CC(=O)N(CCC(=O)N[C@@H](CC(=O)O)C(=O)N[C@@H](CC(=O)O)C(=O)N[C@@H](CC(=O)O)C(=O)N[C@@H](CC(=O)O)C(=O)N[C@@H](CC(=O)O)C(=O)N[C@@H](CC(=O)O)C(=O)N[C@@H](CC(=O)O)C(=O)N[C@@H](CC(=O)O)C(=O)O)C1=O)C(=O)O (stereo partly shown) [octa-aspartic acid] (HELM PEPTIDE1{[N[C@@H](Cc1ccc(O)c(I)c1)C(=O)N[C@@H](CSC1CC(=O)N(CCC(=O)[*:2])C1=O)C(=O)O].D.D.D.D.D.D.D.D}$$$$V2.0)
[2]
  selectivity ratio: 11.2

## SVSEIQLMHNLGKHLNSMERVEWLRKKLQDVHNFVALGAPLAPRDA[dE][dE][dE][dE][dE][dE][dE][dE][dE][dE] [SEQ ID NO: 13]
[3]
  blood (serum) calcium: did not increase the blood calcium significantly in comparison to the free form
